14 molecules from patent publication US20220135655A1 (Dana-Farber, published 2022) can be followed below.

B1: 2A11 (scFv)
scFv: QVQLVQSGAEVKKPGSSVKVSCKASGVTFSSYAISWVRQAPGQGLEWMGGISPVFGTANYAQKFQGRVTITADDSTNTAYMELSSLRSEDTAVYYCARSRGYTVSSLAGRYFDQWGQGTLVTVSSGGGSGGGSGGGSGGGSETTLTQSPGTLSLSPGERASLSCKASESLCSTCLAWYQQKPGQAPRLIVYGATSRATGIPDRFSGSGSGTDFTLTISRLEPEDFAVYYCQQYGSSPQTFGQGTKVEIK
B2: 1F3 (scFv)
scFv: QVQLVQSGAEVKKPGSSVKVSCKASGVIFSSYAISWVRQAPGQGLEWMGGISPIFGTANYAQKFQGRVTITADESTSTAYMELSSLRSEDTAVYYCARSRGYAPGTSFHYDVWGQGTLVTVSSGGGSGGGSGGGSGGGSLPVLTQAPSMSVAPGKTASITCGGDNIGSKSVHWYQQKPGQAPVLVMYYDSDRPSGIPERFSGSNSGNTATLTISRVEAGDEADYFCQLWDHTNSHVVFGGRTKLTVL
B3: 2C1 (scFv)
scFv: QVQLVQSGAEVKKPGSSVKVSCKASGGIFSSYAISWVRQAPGQGLEWMGGISAIFGTANYAQKFQGRVTITADESTSTAYMELSSLRSEDTAVYYCARDSGIASGYTAYMDYWGQGTLVTVSSGGGSGGGSGGGSGGGSSSELTQDPAVSVALGQTVRITCQGDSLRTSYASWYQQKPGQSPVLVIYQSTKRPSGIPERFSASSSGNTASLTITGAQAEDEADYYCNSRGSGGNPYVFGTGTKVTVL
B4: 2E11 (scFv)
scFv: QVQLVQSGAEVKKPGSSVKVSCKASGGTFSSYAISWVRQAPGQGLEWMGGINPIFGTANYAQKFQGRVTITADESTNTAYMELSSLRSEDTAVYYCARGESAYYSRNYDVWGQGTLVTVSSGGGSGGGSGGGSGGGSSYELTQPPSVSKGLRQTATLTCTGNSSNVGNQGASWLQQHQGHPPKLLSYRNDNRPSGISERFSASRSGNTASLTITGLQPEDEADYYCSAWDNSLSAWVFGGGTKLTVL
B5: 1F12 (scFv)
scFv: QVQLVQSGAEVKKPGSSVKVSCKASGGIFSSYAISWVRQAPGQGLEWMGGITPIFGTANYAQKFQGRVTITADESTRTAYMELSSLRSEDTAVYYCARDLSRDSLNLPGSSPGYDLWGQGTLVTVSSGGGSGGGSGGGSGGGSETTLTQSPGTLSLSPGERATLSCRASQSVSSNLAWYQQKPGQAPRLLIYGASTRATGIPARFSGSGSGTEFTLTISSLQSEDFAVYYCQQYSSSPYTFGQGTKLEIK
B6: 1F5 (scFv)
scFv: QVQLVQSGAEVKKPGSSVKVSCKASGGTFSSYAISWVRQAPGQGLEWMGGISPIFGTANYAQKFQGRVTITSDESTSTAYMELSSLRSEDTAVYYCARDQGGTRGNYFDVWGQGTLVTVSSGGGSGGGSGGGSGGGSQPVLTQPPSVSKGLRQTATVTCTGNSNNVGNQGAAWLQQHQGHPPKLLSYRNNNRPSGISERLSASRSGNTASLTIAGLQPEDEADYYCSAWDNTVSGWVFGGGTRVTVL
B7: 1F6 (scFv)
scFv: QVQLVQSGAEVKKPGSSVKVSCKASGGTFSSYAISWVRQAPGQGLEWMGGIITIFGTANYAQKFQGRVTITADESTNTAYMELSSLRSEDTAVYYCARGGGGRFDVWGQGTLVTVSSGGGSGGGSGGGSGGGSSYELTQPPSVSGTPGQRVTISCSGSTSNIGNNALNWYQKLPGTAPKLLIYSLNQRPSGVPDRFSGSKSGTSASLAISGLQSEDEADYYCEAWDDSLSGPVFGGGTKVTVL
B8: 2E12 (scFv)
scFv: QVQLVQSGAEVKKPGSSVKVSCKASGVTFSSYAISWVRQAPGQGLEWMGGISPMFGTANYAQKFQGRVTITADESTNTAYMELSSLRSEDTAVYYCARGGGYYPAGVGRYDVWGQGTLVTVSSGGGSGGGSGGGSGGGSDIVMTQSPDSLAVSLGERATINCKSSQNVLYSSNNKNNLAWYQQRPGQPPKVLLYWASTRASGVPDRFSGSGSGTDFTLTINSLQAEDVALYYCQQYYGKPFTFGPGTKVEIK
B9: 2B6 (scFv)
scFv: QVQLVQSGAEVKKPGSSVKVSCKASGGPFSSYAISWVRQAPGQGLEWMGGISPIFGTANYAQKFQGRVTITADKSTNTAYMELSSLRSEDTAVYYCARGRSYIVSVSPGFDVWGQGTLVTVSSGGGSGGGSGGGSGGGSQSVLTQPPSASGSPGQSVTISCTGTSSDVGGYNYVSWYQQYPGKAPKLMIYEVSKRPSGVPDRFSGSKSGTSASLAISELQSEDEADYYCASWDDSLNAYVFGSGTKVTVL
B10: 1F1 (scFv)
scFv: QVQLVQSGAEVKKPGSSVKVSCKASGGTFSSYAISWVRQAPGQGLEWMGGISAIFGTANYAQKFQGRVTITADESTRTAYMELSSLRSEDTAVYYCARGSGYYVAASGAFDVWGQGTLVTVSSGGGSGGGSGGGSGGGSQPGLTQPPSVSKGLRQTATLTCTGNINNVGDQGAGWLQQHQGRPPKLLSYRNSNRPSGVSERFSASRSGNTASLTITGLQPEDEADYYCSAWDSSLSDWVFGGGTKLTVL
B11: 1H2 (scFv)
scFv: QVQLVQSGAEVKKPGSSVKVSCKASGGPFRSYAISWVRQAPGQGLEWMGGIIPIFGTANYAQKFQGRVTITADESTSTAYMELSSLRSEDTAVYYCARGGVYSFDVWGQGTLVTVSSGGGSGGGSGGGSGGGSQSGLTQPPSASGTPGQRVTISCSGSGSNVGSNVVNWYQHLPGTAPKLLIYRNNQRPSGVPDRFSGSKSGTSASLAISGLQSEDEADYYCAAWDDRLNGFVFGTGTKVTVL
B12: 1E6 (scFv)
scFv: QVQLVQSGAEVKKPGSSVKVSCKASGVTFSSYAISWVRQAPGQGLEWMGGISPIFGTANYAQKFQGRVTITADESTSTAYMELSSLRSEDTAVYYCARGREYYASNGDSFDVWGQGTLVTVSSGGGSGGGSGGGSGGGSQPVLTQPPSVSVAPGKTASISCEGNNIATKSVHWYQQKSGHAPVVVVYHDSDRPSGVPDRFSGSKSGTSASLAISGLRSEDEADYYCAAWDDSLSGPWVFGGGTKLTVL
B13: 1H4 (scFv)
scFv: QVQLVQSGAEVKKPGSSVKVSCKASGVPFSSYAISWVRQAPGQGLEWMGGISPLFGTANYAQKFQGRVTITADQSTSTVYMELSSLRSEDTAVYYCARGLGTYSPSLYPRGMDVWGQGTLVTVSSGGGSGGGSGGGSGGGSLPVLTQPPSASGTPGQSVTISCSGSSSNIGRNDVNWYQQFPGRAPKLLIYGRDERPFGVPARFSGSKSGTSASLAISGLQSEDEADYYCAAWDASLMIYVFGTGTTVTVL
B14: 2A1 (scFv)
scFv: QVQLVQSGAEVKKPGSSVKVSCKASGVIFSSYAISWVRQAPGQGLEWMGGIIPIFGTANYAQKFQGRVTITADKSTSTAYMELSSLRSEDTAVYYCARGGSGSFDVWGQGTLVTVSSGGGSGGGSGGGSGGGSQPGLTQPPSASGTPGQRVTISCSGSSSNLGSNYVFWYQHLPGAAPKLLIYRNSQRPSGVPDRFSGSKSGTSASLAISGLQSEDEADYYCAAWDDSLNGVVFGGGTKLTVL

This assay addresses A/California/04/2009 (H1CA0409) recombinant HA (influenza A virus A/California/04/2009, UniProt P26140 18-529). Description: phage display panning (immunotube) against trimeric HA.
B1: the binding result was “binds”.

As for B2, the binding result is given as “binds”. Consider B3, for which the binding result is recorded as “binds”.

B4: the binding result was “binds”. Then B5, with “binds”; and B6, with “binds”. To B7 belongs “binds”; to B8, “binds”. To B9 belongs “binds”; to B10, “binds”. B11: the binding result was “binds”. B12: the binding result was “binds”. To B13 belongs “binds”; to B14, “binds”.
